In the DeepSol protein solubility set:

Experiment: soluble on expression in E. coli; label from the status in PepcDB or PDB records

| Sequence | soluble on expression in E. coli |
| --- | --- |
| GMISDSISKRRSIRKYKNQSISHETIEKIIEAGINAPSSKNRQPWRFVVITEKEKESMLKAMSKGIQNEINDNGLLPGSRQHIAGANYTVEIMKQAPVTIFILNILGKSPLEKLSPEERFYEMANMQSIGAAIQNMSLTAVELGLGSLWICDVYFAYRELCEWLNTDSQLVAAISLGYPDEEPSRRPRLQLSDVTEWR | soluble |
| GMKPIKEIADQLELKDDILYPYGHYIAKIDHRFLKSLENHEDGKLILVTAVTPTPAGEGKTTTSIGLSMSLNRIGKKSIVTLREPSLGPTLGLKGGATGGGRSRVLPSDEINLHFTGDMHAVASAHNLLAAVLDSHIKHGNELKIDITRVFWKRTMDMNDRALRSIVIGLGGSANGFPREDSFIITAASEVMAILALSENMKDLKERLGKIIVALDADRKIVRISDLGIQGAMAVLLKDAINPNLVQTTEGTPALIHCGPFANIAHGTNSIIATKMAMKLSEYTVTEAGFGADLGAEKFIDFVSRVGGFYPNAAVLVATVRALKYHGGANLKNIHEENLEALKEGFKNLRVHVENLRKFNLPVVVALNRFSTDTEKEIAYVVKECEKLGVRVAVSEVFKKGSEGGVELAKAVAEAAKDVEPAYLYEMNDPVEKKIEILAKEIYRAGRVEFSDTAKNALKFIKKHGFDELPVIVAKTPKSISHDPSLRGAPEGYTFVVSDLFVSAGAGFVVALSGDINLMPGLPKKPNALNMDVDDSGNIVGVS | soluble |
| GMMVPHLTTALTGPLLTLEKRLLDNMPRIEHWFRSQWQEYGAPFYASVDLRNAGFKLAPVDTNLFPGGFNNLNPDFLPLCIQAAMVAVEKICPDARRLLLIPENHTRNTFYLRNVHALTHILRQAGLEVRIGSIAPEITAPTFLETHDGHSILLEPVRRKANRLELDNFDSCAILLNNDLSGGIPDILQGLEQSLIPPLHAGWATRRKSNHFTAYDRVVEEFAPLIDIDPWLLNPYFDTCGGLDFHARLGEEQLAEKVDSLLAKIRRKYAEYGVKQEPFVIVKADAGTYGMGIMTVKSADDVRDLNRKQRNKMSVVKEGLKVSEVILQEGVYTFEHLKDAVAEPVIYMMDHFVVGGFYRVHTSRGADENLNAPGMHFEPLTFETPCSTPDCAGAPDAAPNRFYAYGVVARLALLAATIELQETDPDLLDERT | soluble |
| GMNNIQAIRKKVETQIDDLQNKTDEIAEFNQAKVLDAFQENKVSDFHFHPSTGYGYDDEGRDTLERVYATVFKTEAALVRPQIISGTHAISTVLFGILRPDDELLYITGQPYDTLEEIVGIRKQGQGSLKDFHIGYSSVPLLENGDVDFPRIAKKMTPKTKMIGIQRSRGYADRPSFTIEKIKEMIVFVKNINPEVIVFVDNCYGEFVEYQEPPEVGADIIAGSLIKNPGGGLAKTGGYIAGKEALVDLCGYRLTTPGIGREAGASLYSLLEMYQGFFLAPHVTAQAIKGARFTAAMLAEFGVEADPVWDAPRTDLIQSVSFHNKEKMVAFAQAIQAASPVNAHVLPIGAYMPGYEDDVIMAAGTFIQGASLELTADGPIREPYQLYVQGGLTYEHIKIAVTRAIQKIV | soluble |
| GMNRGKALQLVKPHLTEHRYQHTIGVMETAIDLAKLYGADQQKAELAAIFHDYAKFRDKNEMRTLIREKLSQQDILFYGDELLHAPCGAYYVREEVGIEDEDVLQAIRFHTTGRPNMSLLEKIIFLADYIEPNRQFPGVEKVRTQAKTDLNGAIISSLVNTITFLLKKNQPIYPDTLATYNQLLLEQK | soluble |
| GMPALITYRTTVQEDWVDYNGHLRDAFYLLIFSYATDALMDRIGLDADSRGQSGNSLFTLEAHINYLHEVKLGTEVWVQTQILGFDRKRLHVYHSLHRAGFDEVLAASEQMLLHVDLAGPQSAPFGHTTVCRLNHLVEQQEGAQAPQYMGRTIKLPA | soluble |
| GMPAPLRFSSDKPLLLLIDMQQAVDDPSWGPRNHPQAEQACAGLLQAWRARGLPLIHIRHDSVEPNSTYRPGQPGHAFKPEVEPRPGETVIAKQTNSAFIGTGLEALLRANGWLELVVAGVSTSNSVEATVRMAGNLGFAVCLAEDGCFTFDKTDWHGRRRSADEVHAMSLANLDGEYCRVCGSADILAALGNIAGAA | soluble |
| GMREEKIREALNAHWQASAAGDFDAEHDIYDDDAICDYPQSGERILGRMNLQALRSHHPGKPAGFEVRRIQGEGNLWITEYSISYNGRPAYTVSIMEFRNGKVVHETQYFSDPFEAPGWRSQWVQQIG | soluble |
| GMSAGQSSLSFAHGDETHPIEQKAFIGVDSAAGNVVKQFHAALQMGNEAIVRQSLAANVQIYEGGKVERSLTEYANHHMLADMAYLKGLTITPKEHQITITGDIAISTSISHAQGEYKGKSIDSMTMETLVLIKQADGRWKITHVHWS | soluble |
| GMSLIEIRKRTLIVETTYHENGPAPAQPLKLAASCAVIRNPYAGRYEPDLMPFMAELRSLGTLLATELVDTLGKDNIEVYSKAAIVGVDGEMEHGAVWHEAGGWAMRSVLGEPKAMVPAVKAVATAGYRMMVPVHYIHASYVRSHFNSIEIGIQDAPRPREILFALVMGTGARVHARLGGLTKEAVSVHDGQR | soluble |
| GMSTDTCIKRPTRSELVDRFQKKIRAGEPIIGGGAGTGLSAKSEEAGDIDLIVIYNSGRYRMAGRGSLAGLLAYGNANQIVVDMAREVLPVVRHTPVLAGVNGTDPFMVMSTFLRELKEIGFAGVQNFPTVGLIDGLFRQNLEETGMSYAQEVEMIAEAHKLDLLTTPYVFSPEDAVAMAKAGADILVCHMGLTTGGAIGARSGKSMDDCVSLINECIEAARTIRDDIIILSHGGPIANPEDARFILDSCQGCHGFYGASSMERLPAEEAIRSQTLAFKAIRRQPA | soluble |
| GMTFRDTSAIASWHAHVYFDASSRDAAWTLREQIEAHWSGKLQLGRFHERPVGPHPMWSYQLAFTQEQFADLVGWLTLNHGALDIFLHPNTGDALRDHRDAAVWIGHSHELVLSALN | soluble |
| GMWWYSSIKYSADKVLLDTTRMYYYFINRTPRMEIGRMIAVLSGSFEFSKQYNKEIQERETDDYEVPRLMKQIAGVNDKGKEQPLSQPYALKSRVLLHAYLSRLPLESQNDALEEDQSYIITRILRFVEEMVNCSQNLMNYSQHTKISIETFDNLLKLQPMFVQALWQKNSPLLQLPHITDYNLQHLRKKRVFSCHDLAVMDAETRRSVLRSLSNEEYRDVMVVLSMMPRLQIETKTVVEGEDDKHELTAGCVVTLKVTMRRSRLIDPQEAGLADQYKKYAEDGGDDELEASEAPEEAAATVEEEEVKKRKPWEKNKPKQKKKKAQGQGQKKFVKKNAPASPDTEKALKEE | not soluble |
| GPGSMAEAQARKRTESLSKMYSKTPISEGYALWDREYLLAAMRVFTFKAEGAPPFVLAPYLDSVAEITLQMHDLEDAAEQFAIAAGKYQLIDQKVLADLMRFKVTEVSSSAEIALEQVQAYLAAQDPQANGSGENSTVQTKSAFARVYAYLADLLLRSVDEEQASEAVLAQALTAAELAVQLGWDRDHCGWLLVGDVHAASGNYEKAKEAYGKALQRCPHYAKALERQIGVVQQLVRAADECGDDAGKATLNTELLTLLSRSIEVHPLANTFREKAFLLSEMHGDDAALAFVAETLEHPPQEEIEVIGSSAKEMTSTLLKAKAAILADGNQLDAALEAATKALEVDPNDEEAKSIIRDLHESMAA | soluble |
| GPGSMAKKEVVWLGTPTEADGSELSSPFTSRIGGSAVLFREAPTYSIFNCPKCRSSRWVSLLTQIYAPLDVYDRIVYVLICSSCSEGKGSFCFAVRSQNFNPSYVQSSPAPVVGGGEDEGITFVEDGDWGDDDPKYVDEGPNEVCITNLTCTTMADECKVGSPTQSTDVSSVLVPHGTKVPVEGFCYPCFVLNIFEEPPKPKLCYGTVPDQLLKAQQTYGEDAVETTVVEDEDEPLAEKLLRKYVDRIGRVPSQCVRWGPGQKPLRSSPAPIVIPRCPRCSNERRYELQLTSPIIYFLTKGKEEKDHSLHFGSVLVYTCGGNCNVQPYSLEHCVVEDEV | not soluble |
